The source of these data is paper PMC4466390, “Canonical and Noncanonical Sites Determine NPT2A Binding Selectivity to NHERF1 PDZ1” (PLoS ONE, 2015).

To fix the notation:
B1: NHERF1 PDZ1 (11–120) [human] / rhodamine-labeled 22-residue carboxy-terminal NPT2A peptide [modified: 5-(and 6)-carboxytetramethylrhodamine (rhodamine label), coupled to the peptidyl resin after synthesis; 5-(and … (parent)
chain 1: LPRLCCLEKGPNGYGFHLHGEKGKLGQYIRLVEPGSPAEKAGLLAGDRLVEVNGENVEKETHQQVVSRIRAALNAVRLLVVDPETDEQLQKLGVQVREELLRAQEAPGQA
chain 2: ELPPATPSPRLALPAHHNATRL

In the experiment the parent is B1. Kind of experiment: fluorescence polarisation. The note with it: with rhodamine-labeled 22-residue carboxy-terminal NPT2A peptide [modified: 5-(and 6)-carboxytetramethylrhodamine (rhodamine label), labeled NPT2A peptide 1 µM, read at the highest PDZ1 concentration, est. ~120 µM, parent: 0.11, read off a plot. For orientation: Polarisation of emitted light reports the rotation of a fluorescent probe.
Take chain 1 LPRLCCLEKGPNGYGFNLHGEKGKLGQYIRLVEPGSPAEKAGLLAGDRLVEVNGENVEKETHQQVVSRIRAALNAVRLLVVDPETDEQLQKLGVQVREELLRAQEAPGQA [chain 1 H17N]: the response was 0.1.
chain 1 LPRLCCLEKGPNGYGFHLHGEKGKLGQYIRLVDPGSPAEKAGLLAGDRLVEVNGENVEKETHQQVVSRIRAALNAVRLLVVDPETDEQLQKLGVQVREELLRAQEAPGQA [chain 1 E33D]: the response stood at 0.096.
